# According to patent US10358663B2, “Method of production of 2,4-dihydroxybutyric acid” (ADISSEO FRANCE S.A.S., priority 2010, dated 2019):
# Residue numbers refer to the chain shown, from its start. Numbers in names are those of the source.
# B1: LysC: wild-type aspartate kinase III of E. coli encoded by the lysC gene (protein, listed as Escherichia coli)
# chain: MSEIVVSKFGGTSVADFDAMNRSADIVLSDANVRLVVLSASAGITNLLVALAEGLEPGERFEKLDAIRNIQFAILERLRYPNVIREEIERLLENITVLAEAAALATSPALTDELVSHGELMSTLLFVEILRERDVQAQWFDVRKVMRTNDRFGRAEPDIAALAELAALQLLPRLNEGLVITQGFIGSENKGRTTTLGRGGSDYTAALLAEALHASRVDIWTDVPGIYTTDPRVVSAAKRIDEIAFAEAAEMATFGAKVLHPATLLPAVRSDIPVFVGSSKDPRAGGTLVCNKTENPPLFRALALRRNQTLLTLHSLNMLHSRGFLAEVFGILARHNISVDLITTSEVSVALTLDTTGSTSTGDTLLTQSLLMELSALCRVEVEEGLALVALIGNDLSKACGVGKEVFGVLEPFNIRMICYGASSHNLCFLVPGEDAEQVVQKLHSNLFE
# B2: H39R N43H (SEQ ID NO: 81): M. sedula succinic semialdehyde reductase double mutant H39R N43H (protein, listed as Metallosphaera sedula)
# chain: MKAAVLHTYKEPLSIEDVNISQPKAGEVKIKVKATGLCRSDVHVFEGKTPVPPPVVAGHEISGIVEEVGPGVTRVKPGDRVISAFIHPCGKCGNCVAGKENLCETFSQVRLKGVMPDGTSRLSKDGKEIRTFLGGGFAEYAIVGENALTRVPEDMDLEKVAVLGCAGLTGYGAISSSKIEPGDTVAVIGVGGVGLSTIQLLRASGAGRIIAVGTKKWKLDRAMELGATDVVNSKEIDPVKAIKEITGGGPQVVIEAGGNEDTIHMALDSVRIGGKVVLVGLPPATAMIPIRVASIVRGGIEVVGNYGGRPRVDMPKLLELVRQGRYDPSRLVTGRFRLEEINEAVKMLEEGEAIRSLIIP
# B3: Ms-SSR: succinic semialdehyde reductase from Metallosphaera sedula, wild type (protein, listed as Metallosphaera sedula)
# chain: B2 chain with R39H, H43N
# B4: YPR1: methylbutyraldehyde reductase from Saccharomyces cerevisiae (protein, listed as Saccharomyces cerevisiae)
# chain: MPATLKNSSATLKLNTGASIPVLGFGTWRSVDNNGYHSVIAALKAGYRHIDAAAIYLNEEEVGRAIKDSGVPREEIFITTKLWGTEQRDPEAALNKSLKRLGLDYVDLYLMHWPVPLKTDRVTDGNVLCIPTLEDGTVDIDTKEWNFIKTWELMQELPKTGKTKAVGVSNFSINNIKELLESPNNKVVPATNQIEIHPLLPQDELIAFCKEKGIVVEAYSPFGSANAPLLKEQAIIDMAKKHGVEPAQLIISWSIQRGYVVLAKSVNPERIVSNFKIFTLPEDDFKTISNLSKVHGTKRVVDMKWGSFPIFQ
# B5: Asd: wild-type aspartate semialdehyde dehydrogenase of E. coli, His-tagged (protein, listed as Escherichia coli)
# chain: MKNVGFIGWRGMVGSVLMQRMVEERDFDAIRPVFFSTSQLGQAAPSFGGTTGTLQDAFDLEALKALDIIVTCQGGDYTNEIYPKLRESGWQGYWIDAASSLRMKDDAIIILDPVNQDVITDGLNNGIRTFVGGNCTVSLMLMSLGGLFANDLVDWVSVATYQAASGGGARHMRELLTQMGHLYGHVADELATPSSAILDIERKVTTLTRSGELPVDNFGVPLAGSLIPWIDKQLDNGQSREEWKGQAETNKILNTSSVIPVDGLCVRVGALRCHSQAFTIKLKKDVSIPTVEELLAAHNPWAKVVPNDREITMRELTPAAVTGTLTTPVGRLRKLNMGPEFLSAFTVGDQLLWGAAEPLRRMLRQLA
# modifications: His tag
# notes: wild-type aspartate semialdehyde dehydrogenase of E. coli, His-tagged
# B6: Asd E241Q T136N: double mutant of E. coli aspartate semialdehyde dehydrogenase Asd (protein, listed as Escherichia coli)
# chain: B5 chain with T136N, E241Q
# B7: Hom3: wild-type aspartate kinase of Saccharomyces cerevisiae encoded by HOM3 (protein, listed as Saccharomyces cerevisiae)
# chain: MPMDFQPTSSHSNWVVQKFGGTSVGKFPVQIVDDIVKHYSKPDGPNNNVAVVCSARSSYTKAEGTTSRLLKCCDLASQESEFQDIIEVIRQDHIDNADRFILNPALQAKLVDDTNKELELVKKYLNASKVLGEVSSRTVDLVMSCGEKLSCLFMTALCNDRGCKAKYVDLSHIVPSDFSASALDNSFYTFLVQALKEKLAPFVSAKERIVPVFTGFFGLVPTGLLNGVGRGYTDLCAALIAVAVNADELQVWKEVDGIFTADPRKVPEARLLDSVTPEEASELTYYGSEVIHPFTMEQVIRAKIPIRIKNVQNPLGNGTIIYPDNVAKKGESTPPHPPENLSSSFYEKRKRGATAITTKNDIFVINIHSNKKTLSHGFLAQIFTILDKYKLVVDLISTSEVHVSMALPIPDADSLKSLRQAEEKLRILGSVDITKKLSIVSLVGKHMKQYIGIAGTMFTTLAEEGINIEMISQGANEINISCVINESDSIKALQCIHAKLLSERTNTSNQFEHAIDERLEQLKRLGI
# Columns and labels:
# Assay type in all cases: biochemical
# [1] = Hydroxamate assay to verify phosphorylation of the substrate; conditions: 10 mM malate, 10 mM ATP, 30 min
# Description: Hydroxamate assay: To verify phosphorylation of the substrate, i.e. formation of an acylphosphate anhydride, by wild-type or mutated aspartate kinases, the product of the kinase reaction was incubated with hydroxylamine to form the corresponding aspartate or malate hydroxamate derivative. The assay mixture contained 120 mM Hepes (pH 8), 200 mM KCl, 10 mM ATP, 200 mM hydroxylamine, 10 mM aspartate or malate, and appropriate amount of purified protein. The reaction was stopped after 30 min by addition of an equal volume of 1.7% (w/v) FeCl3 in 1 M hydrochloric acid. Formation of the hydroxamate-iron complex was verified by measuring its characteristic absorbance at 540 nm in a microtiter plate reader. Assay mixtures containing all components except for ATP were used as a blank.
# [2] = Aspartate kinase activity, ADP production coupled to NADH oxidation; conditions: purified enzyme, 30° C., pH 7.5
# Description: Enzymatic assay: Aspartate or malate kinase activities were assayed by coupling ADP production in the kinase reactions to NADH oxidation in the presence of phosphoenolpyruvate, pyruvate kinase, and lactate dehydrogenase.
# Aspartate (or Malate) Kinase aspartate (or malate)+ATP→4-phospho-(L)-aspartate (or 4-phospho-(L)-malate)+ADP
# Pyruvate Kinase ADP+phosphoenolpyruvate→ATP+pyruvate
# Lactate Dehydrogenase pyruvate+NADH→NAD^++lactate
# The assay mixture contained 50 mM Hepes (pH 7.5), 50 mM KCl, 5 mM MgCl2, 0.24 mM NADH, 0.96 mM ATP, 0.96 mM PEP, 9 μg/mL of lactate dehydrogenase (Sigma, L2500), 12.4 μg/mL pyruvate kinase (Sigma, P1506), and appropriate amounts of purified aspartate (malate) kinase. Reactions were started by adding 50 mM (L)-aspartate or (L)-malate. Enzymatic assays were carried out at 30° C. in 96-well flat bottomed microtiter plates in a final volume of 250 μL. The reactions were followed by the characteristic absorption of NADH at 340 nm in a microplate reader (BioRad 680XR).
# Maximum activities for LysC and Hom3 on aspartate were 4.5 μmol/(min*mgprot) and 1.6 μmol/(min*mgprot), respectively. The Km value for aspartate was estimated with the method of Eadie and Hofstee by measuring initial reaction rates (v) at different substrate concentrations (c) and by extracting the slope of the v versus v/c plot. […]
# [3] = Test for malate semialdehyde reductase activity; conditions: for Activity on malate semialdehyde (cofactor NADPH): 0.24 mM NADPH
# Description: Test for Malate Semialdehyde Reductase Activity: Reaction: (L)-Malate semialdehyde+NAD(P)H→(L)-2,4-dihydroxybutyric acid+NAD(P)
# The assay mixture contained 200 mM Hepes (pH 7.5), 50 mM KCl, 5 mM MgCl2, 0.24 mM NADH or NADPH, and appropriate amounts of purified enzyme. Reactions were started by adding 10 mM (L)-malate semialdehyde (malate semialdehyde was prepared freshly for each test, see Example 4). Enzymatic assays were carried out at 30° C. in 96-well flat bottomed microtiter plates in a final volume of 250 μL. The reactions were followed by the characteristic absorption of NAD(P)H at 340 nm in a microplate reader (BioRad 680XR).
# [4] = Malate semialdehyde dehydrogenase activity, reverse biosynthetic direction, NADP reduction
# Description: (§1) Enzymatic assay: Aspartate or malate semialdehyde dehydrogenase activities were assayed in the reverse biosynthetic direction by following the reduction of NADP during the oxidation of aspartate or malate semialdehyde to 4-phospho-(L)-aspartate or 4-phospho-(L)-malate, respectively (Roberts et al., 2003). (L)-aspartate semialdehyde (or (L)-malate semialdehyde)+NADP+Pi→4-phospho-(L)-aspartate (or 4-phospho-(L)-malate)+NADPH
# (§2) The assay mixture contained 200 mM Hepes (pH 9), 50 mM K2HPO4, 0.25 mM NADP. Reactions were started by adding (L)-aspartate semialdehyde or (L)-malate semialdehyde. (L)-Aspartate semialdehyde was added in the form of L-aspartic acid β-semialdehyde hydrate trifluoroacetate (maintained at pH3 to prevent degradation) which is a suitable substrate for enzymatic tests of homoserine dehydrogenase and aspartate semialdehyde dehysrogenase (Roberts et al., 2003). Unstable malate semialdehyde was produced freshly prior to the enzymatic tests by the deprotection of the stable malate semialdehyde derivative 2-[(4S)-2,2-dimethyl-5-oxo-1,3-dioxolan-4-yl]acetaldehyde (DMODA). […]
# (§3) Enzymatic assays were carried out in 96-well flat bottomed microtiter plates in a final volume of 250 μL at 30° C. The reactions were followed by the characteristic absorption of NADPH at 340 nm in a microplate reader (BioRad 680XR).
# [5] = Aspartate semialdehyde dehydrogenase activity, reverse biosynthetic direction, NADP reduction; conditions: His-tagged enzyme, pH 9, 30° C.
# Description: as §1, §2, §3
# [6] = 10 mM (L)-malate semialdehyde, 30° C.
molecule,measurement,setting,value
B1,Phosphorylation of malate as verified by the hydroxamate assay,[1],not able to phosphorylate malate
same,Maximum activity on aspartate,[2],4.5 μmol/(min*mgprot)
B2,Affinity for malate semialdehyde compared to the wild type enzyme,[3],improved affinity
B3,Activity on malate semialdehyde (cofactor NADH),"[3]; 10 mM (L)-malate semialdehyde, 0.24 mM NADH, 30° C.",4.9 μmol/(min*mg_prot)
same,Activity on malate semialdehyde (cofactor NADPH),[3]; [6],4.9 μmol/(min*mg_prot)
B4,Activity on malate semialdehyde (cofactor NADPH),[3]; [6],0.19 μmol/(min*mg_prot)
B5,Activity on (L)-malate semialdehyde,"[4]; His-tagged enzyme, pH 9, 30° C.",0.01 μmol/(min*mgprot)
same,"Maximum specific activity, oxidation of (L)-aspartate semialdehyde to 4-phospho-(L)-aspartate",[5],160 μmol/(min*mgprot)
B6,Maximum specific activity,"[4]; substrate not given, Example 5 tests malate semialdehyde dehydrogenase activity",0.25 μmol/(min*mgprot)
B7,Phosphorylation of malate as verified by the hydroxamate assay,[1],not able to phosphorylate malate
same,Maximum activity on aspartate,[2],1.6 μmol/(min*mgprot)
